Measured values as given in US20160354479A1 (ESBATECH AN ALCON BIOMEDICAL RESEARCH UNIT, published 2016).
Blank lines part the entries; values can stand above or below the binder they belong to.

Tests used:
Human TNF alpha = molecular target: T1, Human TNF alpha (human, UniProt P01375 77-233); assay: direct ELISA on coated human TNF alpha, detection with biotinylated rabbit anti-ESBA105 antibody and streptavidin poly-HRP, OD 450 nm
T1 construct: Coated on the ELISA plate
Procedure: Binding of ESBA105 and its derivatives was assessed by a direct ELISA. Human TNF alpha (PeproTech EC Ltd) was coated on a 96-well microtitre plate and then blocked using BSA (bovine serum albumin). ESBA105 and ESBA105 derivates were tested at concentrations of 50 nM, 12.5 nM, 3.13 nM, 1.56 nM, 0.78 nM, 0.39 nM, 0.20 nM, 0.10 nM and 0.05 nM. Binding of ESBA105 and its derivatives to human TNF alpha was visualized by the subsequent addition of a biotinylated rabbit polyclonal anti-ESBA105 antibody (AK3A, generated at ESBATech), streptavidin Poly HRP and a chromogenic substrate (POD). The product of this reaction was detected by measurement of the optical densitiy (OD) at […] using a spectrophotometer. Data were analyzed using a 4-parameter logistic curve fit, and EC₅₀ values were calculated from the dose-response curves of the scFvs.

[1] = molecular target: T2, recombinant human VEGF165 (human, UniProt P15692-4 27-191); assay: SPR, BIAcore T100, hVEGF165 immobilized
T2 construct: Amine-coupled to a CM4 sensor chip; also called hVEGF165
From the text: (§1) For binding affinity measurements, surface Plasmon resonance measurements with BIAcore™-T100 were employed. In these experiments, purified Escherichia coli-expressed recombinant human VEGF₁₆₅ (PeproTech EC Ltd) was used. Carboxymethylated dextran biosensor chips (CM4, GE Healthcare) were activated with N-ethyl-N′-(3-dimethylaminopropyl)carbodiimide hydrochloride and N-hydroxysuccinimide according to the supplier's instructions. Human VEGF₁₆₅ was coupled to 1 of the 4 different flow cells on a CM4 sensor chip using a standard amine-coupling procedure. The range of responses obtained with the immobilized hVEGF₁₆₅ molecule after coupling and blocking was approximately 120-140 response units (RU). The 4th flow cell of each chip was treated similarly except no proteins were immobilized prior to blocking, and the flow cell was used as in-line reference. Various concentrations of anti-VEGF scFvs (20 nM, 10 nM, 5 nM, 2.5 nM, 1.25 nM, 0.63 nM, 0.31 nM and 0.16 nM) in HBS-EP buffer (0.01 M HEPES, pH 7.4, 0.15 M NaCl, 3 mM EDTA, 0.005% surfactant P20) were injected into the flow cells at a flow rate of 30 μl/min for 5 min. […] The apparent dissociation rate constant (kd), the apparent association rate constant (kₐ) and the apparent dissociation equilibrium constant (KD) were calculated using one-to-one Langmuir binding model with BlAcore T100 evaluation Software version 1.1.

[2] = molecular target: T2, recombinant human VEGF165; assay: SPR, BIAcore T100, hVEGF165 immobilized, 1:1 fit (FIG. 7B)
From the text: as §1

[3] = molecular target: T2, recombinant human VEGF165; assay: SPR, BIAcore T100, hVEGF165 immobilized, 1:1 fit (FIG. 7A)
From the text: For binding affinity measurements, surface Plasmon resonance measurements with BIAcore™-T100 were employed. In these experiments, purified Escherichia coli-expressed recombinant human VEGF₁₆₅ (PeproTech EC Ltd) was used. Carboxymethylated dextran biosensor chips (CM4, GE Healthcare) were activated with N-ethyl-N′-(3-dimethylaminopropyl)carbodiimide hydrochloride and N-hydroxysuccinimide according to the supplier's instructions. Human VEGF₁₆₅ was coupled to 1 of the 4 different flow cells on a CM4 sensor chip using a standard amine-coupling procedure. The range of responses obtained with the immobilized hVEGF₁₆₅ molecule after coupling and blocking was approximately 120-140 response units (RU). The 4th flow cell of each chip was treated similarly except no proteins were immobilized prior to blocking, and the flow cell was used as in-line reference. Various concentrations of anti-VEGF scFvs (20 nM, 10 nM, 5 nM, 2.5 nM, 1.25 nM, 0.63 nM, 0.31 nM and 0.16 nM) in HBS-EP buffer (0.01 M HEPES, pH 7.4, 0.15 M NaCl, 3 mM EDTA, 0.005% surfactant P20) were injected into the flow cells at a flow rate of 30 μl/min for 5 min. Dissociation of the anti-VEGF scFv from the VEGF on the CM4 chip was allowed to proceed for 10 min at 25° C. Sensorgrams were generated for each anti-VEGF scFv sample after in-line reference cell correction followed by buffer sample subtraction. The apparent dissociation rate constant (kd), the apparent association rate constant (kₐ) and the apparent dissociation equilibrium constant (KD) were calculated using one-to-one Langmuir binding model with BlAcore T100 evaluation Software version 1.1.

T2 sequence (P15692 other isoform, or with tags, fused parts or gaps limits assumed): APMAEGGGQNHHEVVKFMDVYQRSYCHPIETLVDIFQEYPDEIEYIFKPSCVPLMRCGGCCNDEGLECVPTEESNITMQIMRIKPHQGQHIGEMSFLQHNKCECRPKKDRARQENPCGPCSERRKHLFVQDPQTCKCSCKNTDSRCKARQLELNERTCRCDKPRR
T1 sequence (P01375 77-233 limits assumed): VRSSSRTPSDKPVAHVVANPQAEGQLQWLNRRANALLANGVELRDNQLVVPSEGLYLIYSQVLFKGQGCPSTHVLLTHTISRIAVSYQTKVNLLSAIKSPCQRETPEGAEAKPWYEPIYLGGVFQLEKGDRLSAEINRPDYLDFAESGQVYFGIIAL

EC50 (read off the curve) (Human TNF alpha): ~1 nM
B1: ESBA105-SS-linker (scFv)
scFv: MADIVMTQSPSSLSASVGDRVTLTCTASQSVSNDVVWYQQRPGKAPKLLIYSAFNRYTGVPSRFSGRGYGTDFTLTISSLQPEDVAVYYCQQDYNSPRTFGQGTKLEVKRGGGGSGGGGSCGGGSGGGCGGGGSGGGGSQVQLVQSGAEVKKPGASVKVSCTASGYTFTHYGMNWVRQAPGKGLEWMGWINTYTGEPTYADKFKDRFTFSLETSASTVYMELTSLTSDDTAVYYCARERGDAMDYWGQGTLVTVSS
notes: un-pegylated

EC50 (read off the curve) (Human TNF alpha): ~1 nM
B2: ESBA105 (scFv)
scFv: MADIVMTQSPSSLSASVGDRVTLTCTASQSVSNDVVWYQQRPGKAPKLLIYSAFNRYTGVPSRFSGRGYGTDFTLTISSLQPEDVAVYYCQQDYNSPRTFGQGTKLEVKRGGGGSGGGGSGGGGSSGGGSQVQLVQSGAEVKKPGASVKVSCTASGYTFTHYGMNWVRQAPGKGLEWMGWINTYTGEPTYADKFKDRFTFSLETSASTVYMELTSLTSDDTAVYYCARERGDAMDYWGQGTLVTVSS
notes: Untreated scFv (VL-linker-VH), made in E. coli; also called ESBA105 Normal linker; naked ESBA105

Kd [1]: 0.0444 nM | koff [2]: 5.03e-05 s⁻¹ | kon [2]: 1.13e+06 M⁻¹ s⁻¹
B3: ESBA903 SS Pep1 linker (scFv)
scFv: MEIVMTQSPSTLSASVGDRVIITCQASEIIHSWLAWYQQKPGKAPKLLIYLASTLASGVPSRFSGSGSGAEFTLTISSLQPDDFATYYCQNVYLASTNGANFGQGTKLTVLGGGGGSGGGGSCGAHWQFNALTVRCGGGGSGGGGSEVQLVESGGGLVQPGGSLRLSCTASGFSLTDYYYMTWVRQAPGKGLEWVGFIDPDDDPYYATWAKGRFTISRDTSKNTVYLQMNSLRAEDTAVYYCAGGDHNSGWGLDIWGQGTLVTVSS
notes: also called ESBA903-Pep1

Kd [3]: 0.0561 nM | koff [3]: 4.31e-05 s⁻¹ | kon [3]: 768000 M⁻¹ s⁻¹
B4: ESBA903 (scFv)
scFv: MEIVMTQSPSTLSASVGDRVIITCQASEIIHSWLAWYQQKPGKAPKLLIYLASTLASGVPSRFSGSGSGAEFTLTISSLQPDDFATYYCQNVYLASTNGANFGQGTKLTVLGGGGGSGGGGSGGGGSGGGGSEVQLVESGGGLVQPGGSLRLSCTASGFSLTDYYYMTWVRQAPGKGLEWVGFIDPDDDPYYATWAKGRFTISRDTSKNTVYLQMNSLRAEDTAVYYCAGGDHNSGWGLDIWGQGTLVTVSS
notes: Anti-VEGF scFv; also called ESBA903 Normal linker; unmodified ESBA903
